Measured values: the Human Domainome abundance scans (Beltran et al. 2025)
± gives the uncertainty stated by the source.

B1: V(D)J recombination-activating protein 2, residues 415 to 491; numbered along this chain, P55895 (parent)
chain: YWITCCPTCDVDINTWVPFYSTELNKPAMIYCSHGDGHWVHAQCMDLAERTLIHLSAGSNKYYCNEHVEIARALHTP
B2: E3 ubiquitin-protein ligase NEDD4, residues 836 to 881; numbered along this chain, P46934 (parent)
chain: EIEQGFLPKGWEVRHAPNGRPFFIDHNTKTTTWEDPRLKIPAHLRG

Variants of: B1
Experiment: abundance fitness (aPCA) (normalised: wild type 0, dead -1); higher = more abundant; growth selection in yeast, the domain comes from the species named
Conditions: Homo sapiens

Variant	abundance fitness
YWITCCPTCDVDINTWVPFYSTELNKFAMIYCSHGDGHWVHAQCMDLAERTLIHLSAGSNKYYCNEHVEIARALHTP	-0.515 ± 0.46
YWITCCPTCDVDINTWVPRYSTELNKPAMIYCSHGDGHWVHAQCMDLAERTLIHLSAGSNKYYCNEHVEIARALHTP	-0.145 ± 0.12
YWITCCPTCDVDINTWVPFYYTELNKPAMIYCSHGDGHWVHAQCMDLAERTLIHLSAGSNKYYCNEHVEIARALHTP	-0.027 ± 0.21
YWITCCPTCDVDINTWFPFYSTELNKPAMIYCSHGDGHWVHAQCMDLAERTLIHLSAGSNKYYCNEHVEIARALHTP	0.109 ± 0.23
YWITCCPTCDVDINTWVPFYSTELNKPAMIYCSHGDGHWVHAQCMDLAERTLIHLSAGSNKYYCNEHVEIARYLHTP	-0.109 ± 0.17
YWITCCPTCDVDINTWVPFYSTELNKPAMIYCSHGDGHWVHAQCMDLAERTLIHLSAGSNKYYCNEHVEIARGLHTP	0.096 ± 0.071
YWITCCPTCDADINTWVPFYSTELNKPAMIYCSHGDGHWVHAQCMDLAERTLIHLSAGSNKYYCNEHVEIARALHTP	-0.741 ± 0.35
YWITCCPTCDVDINTWVPFYSTELNKPAMIYCSHGDGHWVHAQCMDLAERTLIHLSAGSNKYYCNEHVEPARALHTP	-0.216 ± 0.22
YWITCCPTCDVDINTWVPFYSTELNKPAMIYCSHGDGHWVHAQCMDLAERTLIHLSAGSNKYYCNEHVEMARALHTP	0.02 ± 0.077
YWITCCPTCDVDINTWVPFYSTELNKPAMIYCSHGDGHWVHAQCMDLAERTLIHLSAGSNKYYCNEHVEIAAALHTP	0.138 ± 0.11
YWITCCPTCDVDINTWVPFYSTELNKPAMIYCSHGDGHWVHAQCMDLAERTLIHYSAGSNKYYCNEHVEIARALHTP	-0.027 ± 0.083
YWITCCPTCDVDINTWVPFYSTELNKPAMIYCSHGDGHWVHAQCMDLAERTLIHESAGSNKYYCNEHVEIARALHTP	-0.051 ± 0.093
YWITCCPTCDVDINTWVPFYSTELNKPAMIYCSHGDGHWVHAQCMDLAERTLIHLFAGSNKYYCNEHVEIARALHTP	-0.052 ± 0.1
YWITCCPTCDVDINTWVPFYSTELNKPAMIYCSHGDGHWVHAQCFDLAERTLIHLSAGSNKYYCNEHVEIARALHTP	-0.231 ± 0.091
YWITCCPTCDVDINTWVPFYSTELNKPAMIYVSHGDGHWVHAQCMDLAERTLIHLSAGSNKYYCNEHVEIARALHTP	-0.746 ± 0.088
YWITCCPTCDVDINTWVPFYSTELNKPAMIYCSHGDGHWVHAQCMDLAERTLIHLSVGSNKYYCNEHVEIARALHTP	-0.14 ± 0.077
YWITCCPTCDVDINTWVPFYSTELNKPAMIYCSHGDGHWVHAQCMDLAERTLIHLSAGSNKYYCNEHVQIARALHTP	0.147 ± 0.37
YNITCCPTCDVDINTWVPFYSTELNKPAMIYCSHGDGHWVHAQCMDLAERTLIHLSAGSNKYYCNEHVEIARALHTP	0.12 ± 0.31
YWITCCPTCDVDINTWVPFYSTELNKPAMIYCSHGDGHWVHAQCMDLAERTLIHLSAGSKKYYCNEHVEIARALHTP	-0.114 ± 0.12
YWITCCPTCDVDINTWVPFYSTELNKPAMIYCSHGDGHWVHAQCMDLAERTLIHLSAGSSKYYCNEHVEIARALHTP	-0.062 ± 0.062
YWITCCPTCDVDINTWVPFYSTELNKPAMIYCSHGDGHWVHAQCMDLAERTIIHLSAGSNKYYCNEHVEIARALHTP	-0.186 ± 0.14
YWITCCPTCDVDINTWVPFYSTELNKPAMIYCSHGDGHWVHAQCMDLAERTLRHLSAGSNKYYCNEHVEIARALHTP	-0.011 ± 0.071
YWITCCPTCDVDINTWVPFYSTELNKPAMIYCSHGDGHWVHAQCMDLAERTLTHLSAGSNKYYCNEHVEIARALHTP	0.004 ± 0.11
YWITCCPTCDVDINTWVPFYSTELNKPAMIYCSHGDGHWVHAQCMDLAERTLLHLSAGSNKYYCNEHVEIARALHTP	-0.02 ± 0.076
YWITCGPTCDVDINTWVPFYSTELNKPAMIYCSHGDGHWVHAQCMDLAERTLIHLSAGSNKYYCNEHVEIARALHTP	-0.024 ± 0.39

Variants of: B2
Experiment: as above
Conditions: Homo sapiens

Variant	abundance fitness
Q4A	-0.146 ± 0.048
Q4H	-0.172 ± 0.059
Q4D	-0.285 ± 0.11
Q4F	0.067 ± 0.074
Q4C	0.012 ± 0.057
Q4E	0.12 ± 0.077
Q4G	-0.09 ± 0.045
I2Y	-0.326 ± 0.14
I2A	-0.152 ± 0.05
I2V	-0.334 ± 0.064
I2S	-0.166 ± 0.067
I2H	-0.326 ± 0.16
I2D	0.035 ± 0.089
I2F	-0.129 ± 0.095
I2P	-0.953 ± 0.16
I2Q	0.178 ± 0.11
I2T	-0.214 ± 0.099
I2C	-0.217 ± 0.094
I2E	-0.037 ± 0.094
I2L	0.11 ± 0.064
I2K	-0.012 ± 0.082
I2M	-0.044 ± 0.074
I2R	-0.141 ± 0.031
I2W	-0.271 ± 0.1
E3V	-0.162 ± 0.057

Variant	abundance fitness
E3N	0.097 ± 0.083
E3M	-0.073 ± 0.071
E3Q	0.098 ± 0.066
E3I	-0.15 ± 0.11
E3C	-0.141 ± 0.078
E3T	-0.029 ± 0.042
E3K	-0.096 ± 0.074
E3R	-0.366 ± 0.044
E3L	-0.421 ± 0.1
E3F	-0.109 ± 0.098
E3G	-0.044 ± 0.041
E3A	-0.251 ± 0.057
E3D	-0.455 ± 0.11
E3Y	-0.07 ± 0.092
E3W	-0.35 ± 0.089
E1A	-0.259 ± 0.12
E1G	-0.27 ± 0.046
E1N	0.381 ± 0.29
E1K	-0.095 ± 0.48
E1V	-0.153 ± 0.076
E1T	0.091 ± 0.12
E1Y	0.202 ± 0.45
E1R	-0.07 ± 0.2
E1D	-0.219 ± 0.14
